# Measured values reported in the nanobody polyreactivity screen of Harvey et al. (2022).
# Assay: yeast display, Sf9 membrane polyspecificity reagent, FACS + sequencing; frameworks hold sequencing errors
# Method in brief: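 Nanobodies from a synthetic yeast display library (Saccharomyces cerevisiae BJ5465), induced 36–48 hours with galactose, were stained 1 hour at 4 °C with 10% biotinylated, detergent-solubilized Sf9 membrane reagent, enriched on streptavidin microbeads, then FACS-sorted. Anti-HA (expression) and streptavidin (reagent binding) fluorescence set low and high (top ~1%) gates. Polyreactivity labels come from the gate of origin. Genes were colony-PCR amplified, MiSeq 2 × 250 sequenced and filtered by CDR length.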
row,Sequence,polyreactivity (PSR sort gate)
1,QVQLVESGGGLVQAGGSLRLSCAASGSILVSYAMARYSQAPGKERELVAAISGNSDSTYYADSVKGRFTISRDNAKNTVYLQMNSLKPEDTAVYYCAKEGGNGYDYWGQGTQVTVSS,low polyreactivity
2,QVQLVESGGGLVQAGGSLRLSCAASGSILVSYAMGWYRQAPGKERELVAAITSGGRTKYADSVKGRFTISRDNAKNTVYLQMNSLKPEDTAVYYCAADDPLSYQFDYWGQGTQVTVSS,high polyreactivity
3,QVQLVESGGGLVQAGGSLRLSCAASGSILYAYAMGWYRQAPGKERELLAAISSSGGGTYADSVKGRFTISRDNAKNTVYLQMNSLKPEDTAVYYCNADARGGIYFRGVKFDYWGQGTQVTVSS,high polyreactivity
4,QVQLVESGGGLVQAGGSLRLSCAASGSILYINAMGWYRQAPGKERELVAAITYSGGSTYYADSVKGRFTISRDNAKNTVYLQMNSLKPEDTAVYYCAADAVVAGRYDGHDYWGQGTQVTVSS,low polyreactivity
5,QVQLVESGGGLVQAGGSLRLSCAASGSILYIYAMGWYRQAPGKERELVASINSGGSTYYADSVKGRFTISRDNAKNTVYLHMYSLKPEDTGVYYCAKQGVDYWGQGTQVTVSS,low polyreactivity
6,QVQLVESGGGLVQAGGSLRLSCAASGSILYRYTMGWDRQAPGKERELVAAISFSGGRTYYADSVKGRFTISRDNAKNTVYLQMNSLKPEDTAVYYCNAGTSGKYGYWGQGTQVTVSS,high polyreactivity
7,QVQLVESGGGLVQAGGSLRLSCAASGSILYSNMGWYRQAPGKERELVAAITYSGGRTYYADSVKGRFTISRDNAKNTVYLQMNSLKPEDTAVYYCAARLATYGASTYYYWGQGTQVTVSS,high polyreactivity
8,QVQLVESGGGLVQAGGSLRLSCAASGSILYTYAMGWYRQAPGKERELVASISSNAGSTYYADSVKGRFTISRDNAKNTVYLQMNSLKPEDTAVYYCNKVYGGGTYDYWGQGTQVTVSS,low polyreactivity
9,QVQLVESGGGLVQAGGSLRLSCAASGSILYTYAMGWYRQSPGKERELVAAISRGGGSTYYADSVKGRFTISRDNAKNSVYLQMNSLKPEDSAVYYCAARKLTRGSGRDDEYWGQGTQVTVSS,high polyreactivity
10,QVQLVESGGGLVQAGGSLRLSCAASGSIQGYVMGWYRQAPGKERELVAAITNGGSTYYADSVKGRFTISRDNAKNTVYLQMISLKPEDTAVYYCAKRKFRWPYQGSYSYIPFGYWGQGTQVTVSS,high polyreactivity
11,QVQLVESGGGLVQAGGSLRLSCAASGSIRSYAMGWYRQAPGKERELVAAITRSGGSTYYADSVKGRFTLSRDNAKNSVYLQMNSLKPEDTAVYYCAARYTYSYPYYRYNYWGQGTQVTVSS,high polyreactivity
12,QVQLVESGGGLVQAGGSLRLSCAASGSISADDVMGWYRQAPGKERELVAAISVSAGTTYYADSVKGRFTISRDNAKNSVYLQMNSLKPEDSAVYYCAATDSYYWLYYYGYSPGNDYWGQGTQVNVSS,low polyreactivity
13,QVQLVESGGGLVQAGGSLRLSCAASGSISFINAIGWYRQATGKERELVAAISGSGGSTYYADSVKGRFTISRDNAKNTVFLQMNSLKPEDTAVYYCAVPLPSRIYGYWGQGTQVTVSS,low polyreactivity
14,QVQLVESGGGLVQAGGSLRLSCAASGSISFINAMGWYRQAPGKERELVAAITPGASTNYADSVKGRFTISRDNAKNTVYLQLNSLKPEDTAVYFCAAGWVSFEDWVLGSYYEYDYWGLGTQVTVSS,low polyreactivity
15,QVQLVESGGGLVQAGGSLRLSCAASGSISGVYAMGWYRQAPGKERELVAAISRSGGSTYYADSVKGRFTISRDNAKNTVYLQMNSLKPEDTAVYYCAAEYTYYSYGGNYDYWGQGTQVTVSS,low polyreactivity
16,QVQLVESGGGLVQAGGSLRLSCAASGSISKGYAMGWYRQAPGKERELVARISGDGGSTYYADSVKGRFTISRDNAKNTVYLQMNSLKPEDTAVYYCNTRQQFTLTRGVFLHNYWGQGTQVTVSS,high polyreactivity

row,Sequence,polyreactivity (PSR sort gate)
1,QVQLVESGGGLVQAGGSLRLSCAASGSISKSYAMGWYRQAPGKERELVAVITSGGNTYYADSVKGRFTISRDNAKNTVYLQMNSLKPEDTAVYYCAADYHWYTEDDYWGQGTQVTVSS,high polyreactivity
2,QVQLVESGGGLVQAGGSLRLSCAASGSISNFYAMGWYRQAPGKEREFVAAISTRDGTKRFADSVKGRFTISRDNAKNTVYLQMNSLKPEDTAVYYCAAKGGGVWLYARIYSDYYWGQGTQVTVSS,low polyreactivity
3,QVQLVESGGGLVQAGGSLRLSCAASGSISRLYAMRWYRQAPGKERELVARITSSGGRTYYADSVKGRFTISRDNAKNTVYLQMHSLKPEDTAVYYCAARGYVSVWRPYHWFVAGDYWGQGTQVTVSS,high polyreactivity
4,QVQLVESGGGLVQAGGSLRLSCAASGSISRQYALGWYRQAPGTERELVAAITVRGGSTYYADSVKGRFTISRDNAKNTVYLQMNSLKPEDTAVYYCAKYTRYSASYDYWGQGTQVTVSS,high polyreactivity
5,QVQLVESGGGLVQAGGSLRLSCAASGSISSAYAMGWYRQAPGKERELVAVITSGGSTNYADSVKGRFTISRDNAKNTVYLQMNSLKPEDTAVYYCNADTVAPLPYDYWGQGTQVTVSS,low polyreactivity
6,QVQLVESGGGLVQAGGSLRLSCAASGSISSYYAMGWYRQAPGQERELVAAITLNGGNTYYADSVKGRFTISRDNAKKTVYLQMNSLKPEDTAVYYCARRYRYGTKYYYWGQGTQVTVSS,high polyreactivity
7,QVQLVESGGGLVQAGGSLRLSCAASGSISVHYAMGWYRQAPGKERELVAAISRRGGSTYYADSVKGRFTISRDNAMNTVYLQMNSLKPEDTAVYYCNASYYSVIQQTWYDYWGQVTQVTVSS,high polyreactivity
8,QVQLVESGGGLVQAGGSLRLSCAASGSISVPYGMGWYRQAPGKERELVAAITGGSTNYADSVKGRFTISRDNAKNTVYLQMNSLKPEDTAVYYCAADVYWYYGAPELWYRYDYWGQGTQVTVSS,low polyreactivity
9,QVQLVESGGGLVQAGGSLRLSCAASGSISVWYVMGWYRQAPGKEREFVAAIDYGGGSTYADSVKGRFTISRDNAKNTVYLQMNSLKPEDTAVYYCNADNWVYLYDYWGQGTQVTVSS,low polyreactivity
10,QVQLVESGGGLVQAGGSLRLSCAASGSISWYYAMGWYRQAPGKERELVAAISDSGGDTYYADSVKGRFTISRDNAKNTVYLQMNSLKPEDTAVYYCATDTAYWLWVYALLEYWGQGTQVTVSS,low polyreactivity
11,QVQLVESGGGLVQAGGSLRLSCAASGSISYFNAMGWYRQAPGKERELVAAIDVSGDSTYYADSVKGRCTISRDNAKISLYLQMNSLKPEDTAVYYCAKDPTSWYRTFGHSYYWYDYWGQGTQVTVSS,low polyreactivity
12,QVQLVESGGGLVQAGGSLRLSCAASGSISYFYAMGWYRQAPGKERELVADINSGDDTYADSVKGRFTISRDNAKNTVYLQMNSLKPEDTAVYYCSVKYGGYESHYYRRPHYDYWGQGTQVTVSS,low polyreactivity
13,QVQLVESGGGLVQAGGSLRLSCAASGSISYINAMGWYRQAPGKERELVARIRSGDRTNYADSVKGRFTISRDNAKNTVYLQMNSLKPEDTAVYYCAARGLRTGGYWGQGTQVTVSS,high polyreactivity
14,QVQLVESGGGLVQAGGSLRLSCAASGSISYKYALGWYRQAPGKERELVAAISSSGGRTYYADSVKGRFTISRDNAKNTVYLQMISLKPEDTAVYYCNARTGTTWQGYEYDYWGQGTQVTVSS,low polyreactivity
15,QVQLVESGGGLVQAGGSLRLSCAASGSISYKYVMGWYRQAPGKEREFVASITRIGGSTYYADSVKGRFTISRDNAKNTVYLQMNSLKPEDTAVYYCARDYDYWSWPSAYDYWGQGTQVTVSS,low polyreactivity
